Laboratory results from EP3418383A1, “MODIFIED L-ASPARAGINASE” (XL-protein GmbH, priority 2017, dated 2018).

B1: Oncaspar®: E. coli L-asparaginase modified at multiple lysine residues using 5 kDa mPEG-succinimidyl succinate (conjugate, UniProt P00805 23-348, looked up)
L-asparaginase 2: LPNITILATGGTIAGGGDSATKSNYTVGKVGVENLVNAVPQLKDIANVKGEQVVNIGSQDMNDNVWLTLAKKINTDCDKTDGFVITHGTDTMEETAYFLDLTVKCDKPVVMVGAMRPSTSMSADGPFNLYNAVVTAADKASANRGVLVVMNDTVLDGRDVTKTNTTDVATFKSVNYGPLGYIHNGKIDYQRTPARKHTSDTPFDVSKLNELPKVGIVYNYANASDLPAKALVDAGYDGIVSAGVGNGNLYKSVFDTLATAAKTGTAVVRSSRVPTGATTQDAEVDDAKYGFVASGTLNPQKARVLLQLALTQTKDPQQIQQIFNQY
modifications: 5 kDa mPEG succinimidyl succinate
notes: E. coli L-asparaginase modified at multiple lysine residues using 5 kDa mPEG-succinimidyl succinate

Experiments:
[1] = L-asparaginase aminohydrolase activity, Nessler reagent assay (Example 1); assay type: biochemical; details: for Enzyme activity compared to the equally assayed non-modified Crisantaspase: Nessler assay of Example 1
Protocol: The modified proteins were purified by anion exchange chromatography (AEX) on a MonoQ HR5/5 column (GE Healthcare) using 25 mM Na-borate pH 9.0, 1 mM EDTA as running buffer and a NaCl concentration gradient from 0 to 1 M to elute the proteins. L-asparaginase aminohydrolase activity of each Crisantaspase modified protein was determined by reaction of ammonia that is liberated via L-asparagine enzymatic activity with the Nessler reagent. Briefly, 50 µL of enzyme solution was mixed with 20 mM of L-asparagine in a 100 mM sodium borate buffer pH 8.6 containing 0.015 % (w/v) bovine serum albumin and incubated for 15 min at 37 °C. The reaction was stopped by addition of 200 µL of Nessler reagent (Sigma-Aldrich). Absorbance of this solution was measured at 450 nm. The activity was calculated from a calibration curve that was obtained from ammonium sulphate as reference. Table 2: Enzymatic activities of Crisantaspase conjugated with Pga-P/A(20)-Ahx peptide in different amounts

[2] = L-asparaginase enzyme activity, Nessler endpoint assay, specific activity (Example 8); assay type: biochemical; details: Crisantaspase expression system E. coli; for Nessler (Average): average of plates 1-3; for Nessler Plate 1 / Nessler Plate 2 / Nessler Plate 3: specific activity
Protocol: PASylated L-asparaginase enzyme activity was determined by catalysis of the conversion of L-asparagine into L-aspartic acid. This reaction liberates one mole of ammonia per mole of converted L-asparagine. The released ammonia is detected using Nessler's reagent. In the presence of Nessler's reagent the ammonia will form a watersoluble yellow complex that can be quantified by absorbance measurement at 450 nm (Mashburn et al. (1963) Biochem. Biophys. Res. Commun. 12, 50). One unit of L-asparaginase enzyme activity (International Unit or IU) is defined as the amount of enzyme that catalyzes the conversion of one µmol of L-asparagine per minute. The specific activity of the samples (IU/mg) is determined by dividing the value of L-asparaginase activity expressed in IU/mL by the protein concentration expressed in mg/mL. The mass of the protein monomer with the PASylated sequence was measured.
The measurement of L-asparaginase activity is based on an endpoint assay in which the sample is diluted to a series of final enzyme concentrations which are then incubated at 37°C under saturating L-asparagine concentration for 15 minutes. The reaction is stopped by addition of Nessler's reagent and the amount of ammonia produced by the reaction is extrapolated from a calibration curve constructed from known quantities of ammonium sulfate used as standard. A plot of enzyme concentration versus ammonia is then created for each sample and the slope of the curve divided by the reaction time to obtain the specific activity in IU/mg. Specific activity is reported as IU/mg and is reported to the nearest whole number.

[3] = Analytical gel filtration (SEC), hydrodynamic volume / apparent molecular size; assay type: physicochemical; details: tetramer, Superdex S200 10/300 GL, PBS, 1 mg/ml
Text: In order to avoid polymerization of the peptides upon chemical activation of the C-terminus, the N-terminus was protected with pyroglutamyl (Pga) residue. Aminohexanoic acid (Ahx) was incorporated at the C-terminus of the peptides to serve as linker. […] The hydroxybenzotriazol (HOBt) active ester of the peptide is subsequently used to derivatize the amino groups (ε-amino groups of lysine residues or α-amino group of N-terminus) of Crisantaspase with the P/A peptide through formation of peptide or isopeptide bonds, while free HOBt is released. This coupling step is performed in aqueous solution (e.g. PBS buffer) with a content of organic solvent ≤ 30 %. […] The number of coupled P/A peptides can be determined by counting the bands in that ladder starting from the unconjugated Crisantaspase as marked on the right. […] Separation of remaining uncoupled peptide and other non-proteinous byproducts of the chemical conjugation devoid of UV absorption at 280 nm was monitored by the 225 nm UV trace. […]

[4] = Pharmacokinetics, plasma asparaginase activity after single IV bolus dose; assay type: in vivo; details: single IV bolus 25 IU/kg body weight, male CD-1 mice, non-compartmental
Protocol: The pharmacokinetic profile of E. coli expressed recombinant crisantaspase as a PASylated fusion protein (PA-200) or chemically conjugated to PA-peptides (PA-20) was characterized following administration of a single intravenous bolus dose to CD-1 mice. The CD-1 mice is a model for a healthy mouse.
All animals received a single intravenous (IV) bolus via the lateral tail vein (10 mL/kg) based on the body weight taken prior to dosing. Individual doses were calculated based upon the most recent individual body weights to provide the proper dose. The first day of dosing was based on study day 0 body weights.
PASylated asparaginase was administered as a single IV dose of 25 IU/kg body weight to mice. […] Asparaginase activity in mouse plasma was measured using a qualified biochemical assay as described in the previous examples. […]
Asparaginase activity was measured as the concentration of asparaginase in the plasma samples as previously described (Allas et al. (2009) Blood, 114, 2033). […] The plasma asparaginase activity versus time data were analyzed using non-compartmental methods with sparse sampling in an IV bolus administration model. Activity values below the limit of quantitation of the assay (10 U/L) were set to zero in the calculation of group means. […]

[5] = children who received the drug; cited from earlier work
[6] = PEGylated enzyme compared to the unmodified L-asparaginase; cited from earlier work
[7] = 3.5 mg PA peptide/mg Crisantaspase, 10.4 mol PA peptide/mol monomer
[8] = 5 mg PA peptide/mg Crisantaspase, 11.2 mol PA peptide/mol monomer
[9] = 7.5 mg PA peptide/mg Crisantaspase, 11.7 mol PA peptide/mol monomer
[10] = 10 mg PA peptide/mg Crisantaspase, 12.0 mol PA peptide/mol monomer

Row | Molecule | Enzyme activity compared to the equally assayed non-modified Crisantaspase [1] | Nessler (Average) [2] | Nessler Plate 1 [2] | Nessler Plate 2 [2] | Nessler Plate 3 [2] | apparent molecular size [3] | further results
1 | Pyroglutamoyl-P/A(20)-aminohexanoyl-Crisantaspase |  |  |  |  |  |  | Rel. activity [1, 7]: 94.1%; Specific activity [1, 7]: 508 ± 20 U/mg; Rel. activity [1, 8]: 80.7%; Specific activity [1, 8]: 436 ± 22 U/mg; Rel. activity [1, 9]: 74.3%; Specific activity [1, 9]: 401 ± 21 U/mg; Rel. activity [1, 10]: 47.4%; Specific activity [1, 10]: 256 ± 20 U/mg
2 | Pyroglutamoyl-P/A(40)-aminohexanoyl-Crisantaspase [Crisantaspase/PA(40) modified protein] | 78.2% | 528 IU/mg | 567 IU/mg | 528 IU/mg | 490 IU/mg | 820 kDa | 
3 | Pyroglutamoyl-P/A(20)-aminohexanoyl-Crisantaspase [Crisantaspase/PA(20) modified protein] | 91.2% | 676 IU/mg | 694 IU/mg | 732 IU/mg | 602 IU/mg | 531 kDa | t½ [4]: 50.2 h
4 | B1 |  |  |  |  |  |  | children who had an allergic reaction [5]: 30-41%; in vitro activity [6]: approximately 50%
